Data as given in publication PMC10958042.

B1: ATGL (PNPLA2, patatin-like phospholipase domain-containing protein 2), human, full length / G0S2 (G0/G1 switch protein 2), human (parent)
chain 1: MFPREKTWNISFAGCGFLGVYYVGVASCLREHAPFLVANATHIYGASAGALTATALVTGVCLGEAGAKFIEVSKEARKRFLGPLHPSFNLVKIIRSFLLKVLPADSHEHASGRLGISLTRVSDGENVIISHFNSKDELIQANVCSGFIPVYCGLIPPSLQGVRYVDGGISDNLPLYELKNTITVSPFSGESDICPQDSSTNIHELRVTNTSIQFNLRNLYRLSKALFPPEPLVLREMCKQGYRDGLRFLQRNGLLNRPNPLLALPPARPHGPEDKDQAVESAQAEDYSQLPGEDHILEHLPARLNEALLEACVEPTDLLTTLSNMLPVRLATAMMVPYTLPLESALSFTIRLLEWLPDVPEDIRWMKEQTGSICQYLVMRAKRKLGRHLPSRLPEQVELRRVQSLPSVPLSCAAYREALPGWMRNNLSLGDALAKWEECQRQLLLGLFCTNVAFPPEALRMRAPADPAPAPADPASPQHQLAGPAPLLSTPAPEARPVIGALGL
chain 2: METVQELIPLAKEMMAQKRKGKMVKLYVLGSVLALFGVVLGLMETVCSPFTAARRLRDQEAAVAELQAALERQALQKQALQEKGKQQDTVLGGRALSNRQHAS

Variants of: B1
Experiment: LUMIER: Protein A-ATGL variant and firefly luciferase-partner co-expressed in HEK293T, lysates immunoprecipitated on IgG-coated plates, co-precipitated partner measured as luciferase luminescence
Conditions: with G0S2 (G0/G1 switch protein 2), transient co-transfection, IgG-coated LUMITRAC plates, 2 h at 4 °C, three PBS washes, Bright-Glo luciferase reagent, triplicates per assay, two …, parent: 0.26, not graded, scale: log2 fold change of co-immunoprecipitated luminescence relative to wild-type ATGL within each experiment

| Variant | screen value |
| --- | --- |
| chain 1 F348E | -0.115 |
| chain 1 E314A | 0.00238 |
| chain 1 G153A | -1.31 |
| chain 1 G153K | -1.68 |
| chain 1 A104E | -0.113 |
| chain 1 I70A | -1.03 |
| chain 1 I70K | -1.77 |
| chain 1 G59L | -2.12 |
| chain 1 N180L | -1.96 |
| chain 1 E368A | -0.233 |
| chain 1 L62A | -1.67 |
| chain 1 L62K | -1.38 |
| chain 1 L178A | -0.634 |
| chain 1 R113L | -0.0286 |
| chain 1 R113K | 0.927 |
| chain 1 G66L | -0.176 |
| chain 1 G66A | 0.751 |
| chain 1 Q140A | 0.0979 |
| chain 1 Q140K | 0.195 |
| chain 1 P86K | -0.894 |
| chain 1 L159A | -0.413 |
| chain 1 A453E | 0.72 |
| chain 1 N39E | -2.73 |
| chain 1 H109E | 0.353 |
| chain 1 G16K | -0.435 |
| chain 1 P156K | -2.18 |
| chain 1 P258L | -1.36 |
| chain 1 R163K | 0.411 |
| chain 1 Q396A | -1.32 |

Same assay, conditions: with G0S2 (G0/G1 switch protein 2), transient co-transfection, IgG-coated LUMITRAC plates, 2 h at 4 °C, three PBS washes, Bright-Glo luciferase reagent, triplicates per assay, two …, parent: 0.56, not graded, scale: log2 fold change of co-immunoprecipitated luminescence relative to wild-type ATGL within each experiment

| Variant | screen value |
| --- | --- |
| chain 1 F348E | -0.287 |
| chain 1 E314A | -0.218 |
| chain 1 G153A | -1.25 |
| chain 1 G153K | -2.61 |
| chain 1 A104E | 0.0584 |
| chain 1 I70A | -1.14 |
| chain 1 I70K | -2.22 |
| chain 1 G59L | -2.22 |
| chain 1 N180L | -1.94 |
| chain 1 E368A | -0.215 |
| chain 1 L62A | -2.25 |
| chain 1 L62K | -1.99 |
| chain 1 L178A | 0.0997 |
| chain 1 R113L | -0.429 |
| chain 1 R113K | -0.0371 |
| chain 1 G66L | -0.16 |
| chain 1 G66A | 0.00762 |
| chain 1 Q140A | 0.734 |
| chain 1 Q140K | -0.175 |
| chain 1 P86K | -0.783 |
| chain 1 L159A | -0.671 |
| chain 1 A453E | -0.082 |
| chain 1 N39E | -2.67 |
| chain 1 H109E | 0.0835 |
| chain 1 G16K | -0.755 |
| chain 1 P156K | -2.45 |
| chain 1 P258L | -1.64 |
| chain 1 R163K | 0.335 |
| chain 1 Q396A | -1.71 |
